Test results published in PMC8488244.

How the values were obtained:
[1] = target: GmCHS7:PDZlig-CeGFP (Glycine max) (UniProt P30081)
[2] = target: GmCHS7:PDZlig-CeGFP (Glycine max) (UniProt P30081); remark: listed apart in the source

UniProt P30081, sequence (P30081 whole entry): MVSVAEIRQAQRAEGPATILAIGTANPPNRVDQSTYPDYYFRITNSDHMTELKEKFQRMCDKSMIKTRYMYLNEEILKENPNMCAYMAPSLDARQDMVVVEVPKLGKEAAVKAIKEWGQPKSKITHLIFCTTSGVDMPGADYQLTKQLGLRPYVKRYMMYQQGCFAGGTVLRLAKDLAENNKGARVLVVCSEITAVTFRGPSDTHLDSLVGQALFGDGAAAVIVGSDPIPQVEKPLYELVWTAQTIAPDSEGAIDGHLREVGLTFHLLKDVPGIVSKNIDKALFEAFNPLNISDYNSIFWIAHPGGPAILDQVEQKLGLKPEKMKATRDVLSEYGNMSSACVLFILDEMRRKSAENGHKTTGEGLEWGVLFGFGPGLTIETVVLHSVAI

- CHR ratio (CHR product to total CHS product) in E. coli BL21(DE3)-pYH153 [1]: 54.7%
- titer of apigenin in strain DHF-2 (pYH153) compared to DHF-1 (pYH141) [2]: 1.1 fold
Substance: GuCHR:PDZ-NeGFP (from UniProt Q61234 81-164)
